Experimental data as given in publication PMC5770238 (Science (New York, N.Y.), 2017).
Read-outs that look alike come from different tables or passages of the source.

Key:
Assay in all cases: fluorescence polarisation
[1] = target: T1, Hsp104 T317A (sensor 1 ATPase mutant in NBD1) (S. cerevisiae, UniProt P31539 1-908, T317A)
[2] = target: T2, Hsp104 N728A (sensor 1 ATPase mutant in NBD2) (S. cerevisiae, UniProt P31539 1-908, N728A)
[3] = target: T3, Hsp104 (S. cerevisiae AAA+ disaggregase), wild type (S. cerevisiae, UniProt P31539 1-908)
T3 sequence (P31539 whole entry): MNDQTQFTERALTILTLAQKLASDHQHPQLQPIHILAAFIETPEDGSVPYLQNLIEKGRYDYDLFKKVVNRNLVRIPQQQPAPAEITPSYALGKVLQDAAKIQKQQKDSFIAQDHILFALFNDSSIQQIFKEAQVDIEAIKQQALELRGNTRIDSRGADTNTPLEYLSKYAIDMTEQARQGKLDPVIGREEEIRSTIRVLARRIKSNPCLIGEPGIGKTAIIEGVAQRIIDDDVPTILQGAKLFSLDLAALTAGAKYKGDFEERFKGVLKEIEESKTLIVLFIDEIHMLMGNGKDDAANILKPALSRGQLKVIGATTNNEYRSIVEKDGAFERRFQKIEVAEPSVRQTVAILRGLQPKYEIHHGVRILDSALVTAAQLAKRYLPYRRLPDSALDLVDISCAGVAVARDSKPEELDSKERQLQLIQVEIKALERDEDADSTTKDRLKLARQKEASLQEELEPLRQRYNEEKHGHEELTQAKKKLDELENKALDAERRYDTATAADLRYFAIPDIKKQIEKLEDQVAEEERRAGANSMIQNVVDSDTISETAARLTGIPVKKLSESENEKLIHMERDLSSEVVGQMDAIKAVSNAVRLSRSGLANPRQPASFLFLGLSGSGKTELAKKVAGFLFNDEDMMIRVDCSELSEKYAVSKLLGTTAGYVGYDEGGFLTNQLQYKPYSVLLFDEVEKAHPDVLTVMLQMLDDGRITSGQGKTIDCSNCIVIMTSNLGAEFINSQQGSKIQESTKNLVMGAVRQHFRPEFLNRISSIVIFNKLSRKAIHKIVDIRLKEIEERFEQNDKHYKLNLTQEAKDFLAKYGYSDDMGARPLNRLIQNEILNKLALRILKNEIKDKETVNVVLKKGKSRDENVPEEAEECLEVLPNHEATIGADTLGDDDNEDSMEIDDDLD

[4] = target: T1, Hsp104 T317A (sensor 1 ATPase mutant in …); remark: listed apart in the source
[5] = target: T2, Hsp104 N728A (sensor 1 ATPase mutant in …); remark: listed apart in the source
[6] = target: T3, Hsp104 (S. cerevisiae AAA+ …); remark: listed apart in the source

T2 sequence (P31539 whole entry N728A): as the sequence (P31539 whole entry) above, with N728A counted along it
T1 sequence (P31539 whole entry T317A): as the sequence (P31539 whole entry) above, with T317A counted along it

Kd [1]: ~1400 nM
Kd [2]: 16 to 20 nM
Kd [3]: ~20 nM
Kd [4]: > 2000 nM
Kd [5]: ~33 nM
Kd [6]: > 2000 nM
B1: FITC-labeled casein (natural protein)
chain: RPKHPIKHQGLPQEVLNENLLRFFVAPFPEVFGKEKVNELSKDIGSESTEDQAMEDIKQMEAESISSSEEIVPNSVEQKHIQKEDVPSERYLGYLEQLLRLKKYKVPQLEIVPNSAEERLHSMKEGIHAQQKEPMIGVNQELAYFYPELFRQFYQLDAYPSGAWYYVPLGTQYTDAPSFSDIPNPIGSENSEKTTMPLW
modifications: FITC label (site not stated)
